Measured values from US20240141039A1 (AGENUS, published 2024).
Like-named read-outs stand apart in the source and are kept apart here.

Tests used:
[1] = molecular target: T1, wild type full-length human TIGIT expressed on cells (human, UniProt Q495A1 22-244); assay: flow cytometry, blocking of CD155-Fc-PE binding to human TIGIT CHO cells, geomean of 3 experiments
T1 construct: whole, on cells; also called human TIGIT-CHO; human TIGIT CHO cells
T1 sequence (looked up): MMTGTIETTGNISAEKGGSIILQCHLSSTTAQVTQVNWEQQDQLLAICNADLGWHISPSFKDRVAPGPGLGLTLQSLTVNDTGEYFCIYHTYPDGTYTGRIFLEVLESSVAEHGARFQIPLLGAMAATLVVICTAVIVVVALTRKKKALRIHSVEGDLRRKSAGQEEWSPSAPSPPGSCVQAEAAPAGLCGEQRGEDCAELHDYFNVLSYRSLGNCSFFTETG
Description: A 4× concentrated intermediate stock of each multispecific molecule was prepared in a microplate. Antibodies were serially diluted 1-to-3 in FACS buffer. […] Lastly, 25 μL of human TIGIT-CHO cells, prepared as described above, were added to each well. After a 30-minute incubation on ice, the cells were washed twice with cold FACS Buffer, and the cells were analyzed by flow cytometry (BD LSR Fortessa Flow Cytometer). The data were analyzed using the FlowJo software by sequentially gating on the FSC-A vs. SSC-A and SSC-H vs. SSC-A. Mean fluorescence intensity (MFI) values for PE were calculated, and the data were plotted by GraphPad Prism software and analyzed as described above.

[2] = molecular target: T2, full-length ECD of human TIGIT (His-tagged) (human); assay: SPR Biacore T200, Protein A capture, 1:1 model, experiment #2
T2 construct: also called His-tagged human TIGIT; human TIGIT extracellular domain
T2 chain: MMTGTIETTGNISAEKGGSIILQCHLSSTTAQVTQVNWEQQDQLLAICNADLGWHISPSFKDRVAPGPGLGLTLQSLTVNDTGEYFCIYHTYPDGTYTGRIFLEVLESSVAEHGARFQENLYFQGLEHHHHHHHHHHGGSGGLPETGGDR
Description: (§1) Briefly, surface plasmon resonance experiments were performed using a Biacore T200 instrument, and the association rate (kₐ), dissociation rate (kd), and dissociation constant (KD) were calculated from each experiment using a 1:1 binding model with Biacore T200 Evaluation Software.
(§2) Multispecific molecules were captured using a 30-sec injection at a flow rate of 10 μl/min to reach about 1000 resonance units (RUs). […] The sensor chip was regenerated between cycles with two 30-sec injections of 10 mM glycine, pH 1.5. Sensorgrams were evaluated and fit to a simple Langmuir 1:1 interaction model using the global data analysis option of BIAevaluation 3.0 software. Data quality was verified by visually inspecting deviations and curve fitting, and by evaluating the parameters of Rₘₐₓ, Chi2, and Tc.

[3] = molecular target: T1, wild type full-length human TIGIT …; assay: flow cytometry, human TIGIT CHO cells, geomean of 2 experiments
Description: For the antibody binding assay, a frozen aliquot of human TIGIT-CHO cells was thawed at 37° C. and then transferred to a tube containing DPBS supplemented with 0.5% Bovine Serum Albumin and 0.05% Sodium Azide (FACS Buffer). Cells were centrifuged at 300 g for five minutes. The supernatant was discarded, and cells resuspended in FACS buffer were seeded in a 96-well U-bottom tissue culture plate at a density of 2×10⁵ cells per well in 50 μL. In a separate microplate, a 2× concentrated intermediate stock of each antibody was prepared. Antibodies were serially diluted 1-to-4 in FACS buffer. A total of 11 working dilutions ranging from 60 μg/mL to 0.000057 μg/mL were prepared. Fifty microlitres of each dilution were then transferred to the microplate containing human TIGIT-CHO cells. The cells were then incubated for 45 minutes at 4° C. […] After a 30-minute incubation on ice, the cells were washed twice with cold FACS Buffer, and the cells were analyzed by flow cytometry (BD LSR Fortessa Flow Cytometer). The data were analyzed using the FlowJo software by sequentially gating the FSC-A vs. SSC-A, and SSC-H vs. SSC-A. Mean fluorescence intensity (MFI) values for PE were calculated, and the data were plotted by GraphPad Prism software.

[4] = molecular target: T2, full-length ECD of human TIGIT …; assay: SPR Biacore T200, geomean of experiments #1 and #2
Description: as §1
as §2, with “Antibodies” for “Multispecific molecules”, “500” for “1000”

[5] = molecular target: T3, full-length ECD of cynomolgus monkey TIGIT (His-tagged) (cynomolgus monkey); assay: SPR Biacore T200, geomean of experiments #1 and #2
T3 construct: also called His-tagged cynomolgus monkey TIGIT; cyno TIGIT extracellular domain
Description: as §1
as §2, with “Antibodies” for “Multispecific molecules”, “500” for “1000”

[6] = molecular target: T2, full-length ECD of human TIGIT …; assay: SPR Biacore T200, Protein A capture, 1:1 model, experiment #2
Description: as §1
as §2, with “Antibodies” for “Multispecific molecules”, “500” for “1000”

[7] = molecular target: T3, full-length ECD of cynomolgus monkey …; assay: as above
Description: as §1
as §2, with “Antibodies” for “Multispecific molecules”, “500” for “1000”

B1: anti-TIGIT×CD96 multispecific molecule BA127 (bispecific antibody, human IgG1, kappa, lambda)
heavy 1: QVQLVQSGAEVKKPGASVKVSCKASGYTFTTYALHWVRQAPGQRLEWMGWINTGSGDTKYSQKFQGRVTITRDTSASTAYMELSSLRSEDTAVYYCARSLGVYYGMDVWGQGTLVTVSSASTKGPSVFPLAPSSKSTSGGTAALGCLVKDYFPEPVTVSWNSGALTSGVHTFPAVLQSSGLYSLSSVVTVPSSSLGTQTYICNVNHKPSNTKVDKRVEPKSCDKTHTCPPCPAPELLGGPDVFLFPPKPKDTLMISRTPEVTCVVVDVSHEDPEVKFNWYVDGVEVHNAKTKPREEQYNSTYRVVSVLTVLHQDWLNGKEYKCKVSNKALPAPIEKTISKAKGQPREPQVYTLPPSREEMTKNQVSLSCAVKGFYPSDIAVEWESNGQPENNYKTTPPVLDSDGSFFLVSKLTVDKSRWQQGNVFSCSVMHEALHNHYTQKSLSLSPG
light 1: not shown
heavy 2: EVQLVQSGAEVKKPGSSVKVSCKASGYTFASYGISWVRQAPGQGLEWMGGITPFFNRVDVAEKFQGRVTITADKSTSTAYIELSSLRSEDTAVYYCARDLRRGGVGDAFDIWGRGTLVTVSSASTKGPSVFPLAPSSKSTSGGTAALGCLVKDYFPEPVTVSWNSGALTSGVHTFPAVLQSSGLYSLSSVVTVPSSSLGTQTYICNVNHKPSNTKVDKRVEPKSCDKTHTCPPCPAPELLGGPDVFLFPPKPKDTLMISRTPEVTCVVVDVSHEDPEVKFNWYVDGVEVHNAKTKPREEQYNSTYRVVSVLTVLHQDWLNGKEYKCKVSNKALPLPEEKTISKAKGQPREPQVYTLPPSREEMTKNQVSLWCLVKGFYPSDIAVEWESNGQPENNYKTTPPVLDSDGSFFLYSKLTVDKSRWQQGNVFSCSVMHEALHNHYTQKSLSLSPG
light 2: QSALTQPRSVSGSPGQSVTISCTGTSPDVGSHAYRSWYQQHPGKAPKLMIYEVSYRPSGVSNRFSGSKSGNTASLTISGLQAEDEADYYCSSYPPSSATVFGAGTKLTVLGQPKAAPSVTLFPPSSEELQANKATLVCLISDFYPGAVTVAWKADSSPVKAGVETTTPSKQSNNKYAASSYLSLTPEQWKSHRSYSCQVTHEGSTVEKTVAPTEC
notes: Anti-CD96 arm = BA139, anti-TIGIT arm = BA150; copies: 1 + 1 + 1 + 1
[1]
  IC50: 0.164 µg/mL
[2]
  Kd: 0.611 nM
  koff: 0.000385 s⁻¹
  kon: 631000 M⁻¹ s⁻¹
[3]
  EC50: 0.033 µg/mL

B2: anti-TIGIT monospecific antibody BA148 (antibody, human IgG1, lambda)
heavy: EVQLVQSGAEVKKPGSSVKVSCKASGYTFASYGISWVRQAPGQGLEWMGGITPFFNRVDVAEKFQGRVTITADKSTSTAYIELSSLRSEDTAVYYCARDLRRGGVGDAFDIWGRGTLVTVSSASTKGPSVFPLAPSSKSTSGGTAALGCLVKDYFPEPVTVSWNSGALTSGVHTFPAVLQSSGLYSLSSVVTVPSSSLGTQTYICNVNHKPSNTKVDKRVEPKSCDKTHTCPPCPAPELLGGPDVFLFPPKPKDTLMISRTPEVTCVVVDVSHEDPEVKFNWYVDGVEVHNAKTKPREEQYNSTYRVVSVLTVLHQDWLNGKEYKCKVSNKALPLPEEKTISKAKGQPREPQVYTLPPSREEMTKNQVSLTCLVKGFYPSDIAVEWESNGQPENNYKTTPPVLDSDGSFFLYSKLTVDKSRWQQGNVFSCSVMHEALHNHYTQKSLSLSPGK
light: B1 light 2
notes: IgG1; also called anti-TIGIT IgG1 antibody BA148
[4]
  Kd: 0.54 nM
[5]
  Kd: 3.9 nM
[6]
  Kd: 0.548 nM
  koff: 0.000422 s⁻¹
  kon: 770000 M⁻¹ s⁻¹
[7]
  Kd: 4.06 nM
  koff: 0.00126 s⁻¹
  kon: 310000 M⁻¹ s⁻¹
